Data as given in patent US20250092148A1 (Kyowa Kirin, published 2025).

T1: human CD116 soluble antigen (His-tag form) (human, UniProt P15509 23-320)
T1 construct: extracellular domain; expressed in Expi293F cells; also called hCD116-His
T1 sequence (looked up): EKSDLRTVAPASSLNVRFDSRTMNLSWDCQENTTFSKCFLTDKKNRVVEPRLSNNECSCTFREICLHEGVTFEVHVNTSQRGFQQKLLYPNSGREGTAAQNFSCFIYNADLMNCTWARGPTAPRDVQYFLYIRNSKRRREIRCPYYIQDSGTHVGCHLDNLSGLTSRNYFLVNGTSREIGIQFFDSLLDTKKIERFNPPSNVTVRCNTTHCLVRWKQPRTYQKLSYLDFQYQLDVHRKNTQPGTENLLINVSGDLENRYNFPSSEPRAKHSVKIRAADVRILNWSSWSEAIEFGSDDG

B1: 116-413 (Fab, V domains shown)
VH: QVQLVQSGAEVKKPGASVKVSCKVSGYTLTDLSMHWVRQAPGKGLEWMGGFDPEDGETIYAQKFQGRVTMTEDTSTDTAYMELSSLRSEDTAVYYCATGLFYYQYGMDVWGQGTTVTVSS
VL: not shown
notes: phage library clone, E. coli culture supernatant
B2: 116-398 (Fab, V domains shown)
VH: EVQLVQSGAEVKKPGASVKVSCKVSGYTLAELSMHWVRQAPGKGLEWMGGFDPEDGERIYAQKFQGRVTMTEDTSKDTAYMELSSLRSEDTAVYYCTTGLFYYQYGMDVWGQGTMVTVSS
VL: not shown
notes: phage library clone, tested as E. coli culture supernatant (FLAG-His tag)
B3: 116-435 (Fab, V domains shown)
VH: EVQLVQSGAEVKKPGASVKVSCKVSGYTLTELSMHWVRQAPGKGLEWMGGFDPEDGERIYAQKFQGRVTMTEDTSTDTAYMELSSLRSEDTAVYYCATGLFYYQYGMDVWGQGTTVTVSS
VL: not shown
notes: as for B1
B4: 116-412 (Fab, V domains shown)
VH: EVQLVQSGAEVKKPGASVKVSCKVSGYTLTDLSMHWVRQAPGKGLEWMGGLDPEDGETIYAQKFQGRVTMTEDTSTDTAYMELSSLRSEDTAVYYCATGLFYYQYGMDVWGQGTLVTVSS
VL: not shown
notes: as for B1
B5: 116-465 (Fab, V domains shown)
VH: QVQLVQSGAEVKKPGASVKVSCKVSGYPLTDLSMHWVRQAPGEGLEWMGGSDPEDGETIYAQKFQGRVTVTEDTSTDTAYMELSNLRSEDTAVYYCATGLFYYQYGMDVWGQGTTVTVSS
VL: not shown
notes: as for B1
B6: 116-466 (Fab, V domains shown)
VH: QVQLVQSGAEVKKPGASVKVSCKVSGYTLTDLSMHWVRQAPGKGLEWMGGFDPEDGERIYAQKFQDRVTMTEDTSTDTAYMELSSLRSEDTAVYYCATGLFYYQYGMDVWGQGTLVTVSS
VL: not shown
notes: as for B1
B7: 116-439 (Fab, V domains shown)
VH: QVQLQQSGAEVKKPGASVKVSCKVSGYTLTDLSMHWVRQAPGKGLEWMGGFDPEDGERIYAQKFQGRVTMTEDTSTDTAYMELSSLRSEDTAVYYCATGLFYYQYGMDVWGQGTLVTVSS
VL: not shown
notes: as for B1
B8: 116-463 (Fab, V domains shown)
VH: QVQLVQSGAEVKKPGASVKVSCKVSGYTLTDFAIHWVRQAPGKGLEWMGGFDPEDGERIYAQKFQGRVTMTEDTSTDTAYMELSSLRSEDTAVYYCATGLFYYQYGMDVWGQGTTVTVSS
VL: not shown
notes: as for B1
B9: 116-421 (Fab, V domains shown)
VH: QVQLQQSGAEVKKPGASVKVSCKVSGYTLTDLSMHWVRQAPGKGLEWMGGFDPEDGERIYAQKFQGRVTMTEDTATDTAYMELSSLRSEDTAVYHCATGLFYYQYGMDVWGQGTTVTVSS
VL: not shown
notes: as for B1
B10: 116-433 (Fab, V domains shown)
VH: QVQLVQSGAEVKKPGASVKVSCKVSGYTLTDFAIHWVRQAPGKGLEWMGGFDPEDGERIYAQKFQGRVTMTEDTSTDTAYMELSSLRSEDTAVYYCTTGLFYYQYGMDVWGQGTLVTVSS
VL: not shown
notes: as for B1
B11: 116-464 (Fab, V domains shown)
VH: QVQLVQSGAEVKKPGASVKVSCKVSGYTLTDLSMHWVRQAPGKGLEWMGGFDPEDGERIYAQKFQGRVTMTEDTSTDTAYMELSSLRSEDTAMYYCATGLFYYQYGMDVWGQGTTVTVSS
VL: not shown
notes: as for B1

Each binder was assayed against T1, human CD116 soluble antigen (His-tag …) (assay: screening by ELISA on biotinylated antigen and by flow cytometry, E. coli supernatant).
Description: Using the obtained monoclonal Escherichia coli culture supernatant, screening for clones that bind to both human CD116 and monkey CD116 was performed by ELISA and FCM described below.
In screening by ELISA, a MAXISORP plate (manufactured by NUNC Corporation) was immobilized with streptavidin (manufactured by Thermo Fisher Scientific) and blocked using 1% BSA-PBS (manufactured by Nacalai Tesque, Inc.), and then the biotinylated human CD116 soluble antigen (His-tag form) or the biotinylated monkey CD116 soluble antigen (His-tag form) binds thereto. Each Escherichia coli culture supernatant was added to each well of the plate and allowed to react for 60 minutes at room temperature, and then each well was washed 3 times with PBS-T.
Next, HRP-labeled Goat poly, anti-human IgG F(ab′)₂ (manufactured by Abcam) was diluted 1000 times with 1% BSA-PBS, and 50 μL thereof was added to each well, followed by incubating at room temperature for 30 minutes. After washing the microplate 3 times with PBS-T, 50 μL of TMB color developing substrate solution (manufactured by DAKO) was added to each well, followed by incubating at room temperature for 10 minutes. A 2N HCl solution (50 μL/well) was added to each well to stop the color developing reaction, and an absorbance at a wavelength of 450 nm (reference wavelength: 570 nm) was measured using a plate reader (EnSpire: manufactured by PerkinElmer).
B1: binds. B2: binds. B3: binds. B4: binds. B5: binds. B6: binds. B7: binds. B8: binds. B9: binds. B10: binds. B11: binds.
